The values below come from US20250092426, “CAS ENDONUCLEASES AND RELATED METHODS” (Flagship Pioneering Innovations VII, LLC, published 2025).

In the data set the target is T1, CasEnd-9 (synthetic construct).
T1 chain: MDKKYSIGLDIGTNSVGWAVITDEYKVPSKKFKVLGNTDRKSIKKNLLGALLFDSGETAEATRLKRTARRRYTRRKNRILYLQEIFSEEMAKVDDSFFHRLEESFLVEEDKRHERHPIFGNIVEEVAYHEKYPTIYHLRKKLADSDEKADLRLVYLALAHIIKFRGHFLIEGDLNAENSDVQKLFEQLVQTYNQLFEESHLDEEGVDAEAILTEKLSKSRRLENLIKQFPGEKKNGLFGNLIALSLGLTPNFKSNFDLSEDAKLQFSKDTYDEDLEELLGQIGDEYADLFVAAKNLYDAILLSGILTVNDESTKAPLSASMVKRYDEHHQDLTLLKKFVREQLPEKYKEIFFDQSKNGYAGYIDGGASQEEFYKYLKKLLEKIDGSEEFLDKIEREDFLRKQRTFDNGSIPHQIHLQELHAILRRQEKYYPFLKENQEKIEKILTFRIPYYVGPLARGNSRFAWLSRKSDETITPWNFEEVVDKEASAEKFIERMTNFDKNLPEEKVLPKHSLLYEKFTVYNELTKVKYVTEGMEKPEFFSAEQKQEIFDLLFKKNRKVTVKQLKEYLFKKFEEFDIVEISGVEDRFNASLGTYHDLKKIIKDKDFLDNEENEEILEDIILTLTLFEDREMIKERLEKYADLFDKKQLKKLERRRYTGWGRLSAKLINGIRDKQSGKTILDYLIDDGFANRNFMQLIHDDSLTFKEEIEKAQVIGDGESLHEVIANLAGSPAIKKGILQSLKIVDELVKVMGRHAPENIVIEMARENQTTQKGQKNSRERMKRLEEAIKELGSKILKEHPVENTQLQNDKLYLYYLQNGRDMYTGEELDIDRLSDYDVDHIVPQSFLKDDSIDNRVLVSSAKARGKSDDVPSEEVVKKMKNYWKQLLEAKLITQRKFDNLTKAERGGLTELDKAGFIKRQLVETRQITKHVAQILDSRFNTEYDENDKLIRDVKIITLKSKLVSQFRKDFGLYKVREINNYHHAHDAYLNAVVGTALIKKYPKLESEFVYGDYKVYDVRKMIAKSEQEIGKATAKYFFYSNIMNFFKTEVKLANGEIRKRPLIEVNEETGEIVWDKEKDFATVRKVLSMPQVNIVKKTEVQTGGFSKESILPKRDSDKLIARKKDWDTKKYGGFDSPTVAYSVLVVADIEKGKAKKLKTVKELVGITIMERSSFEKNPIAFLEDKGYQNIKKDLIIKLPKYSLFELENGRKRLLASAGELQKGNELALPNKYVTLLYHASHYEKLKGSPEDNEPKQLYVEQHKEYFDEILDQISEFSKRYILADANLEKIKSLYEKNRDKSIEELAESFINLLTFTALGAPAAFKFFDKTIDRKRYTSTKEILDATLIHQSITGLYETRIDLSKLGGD
The experiment in a line: cell_activity; +++; HEK293T; PAM not stated. The procedure: The ability of the candidate endonucleases, including endonucleases 1-38 (CasEnds 1-38) (set forth in Table 1 and SEQ ID NOS: 1-38, respectively), to mediate target nucleic acid editing was assessed utilizing a blue fluorescent protein (BFP) to green fluorescent protein (GFP) conversion assay, wherein programmed nucleotide editing of the BFP gene was measured by the expression of GFP (signifying the conversion of […] via the programmed nucleotide edit in the BFP gene). The conversion assay was conducted utilizing the reverse transcriptase-based system (as described above in Example 2) comprising a template RNA (designed to convert BFP to GFP) and a fusion protein comprising a retroviral reverse transcriptase and the individual subject Cas endonuclease. The amino acid sequence of the base portion of the fusion protein (without the individual subject Cas endonuclease) is set forth in Table 7 (SEQ ID NO: 43).
Briefly, 200 ng of plasmid DNA encoding the subject fusion protein (containing one of the subject CasEnds) and 200 ng of template RNA (in plasmid format) were added to 25 μL SF buffer containing 250,000 HEK293T BFP-expressing cells. Nucleofection was mediated utilizing program DS-150. The day of nucleofection was marked as day 0. At day 4, the cells were harvested and analyzed by flow cytometry to assess the level of BFP and GFP expression in HEK293T cells. Cells having GFP signal were defined as having undergone a successful editing event, and the percent of cells that were GFP+ on day 4 was used to determine the performance of each Cas endonuclease.

Bounds are passed on as bounds.

B1: BFP-to-GFP template RNA ; BFP reporter protospacer (ssRNA ; dsDNA)
RNA: GCCGAAGCACUGCACGCCGUGUUUUAGAGCUAGAAAUAGCAAGUUAAAAUAAGGCUAGUCCGUUAUCAACUUGAAAAAGUGGCACCGAGUCGGUGCACCCUGACGUACGGCGUGCAGUGCUU
DNA 1: GCCGAAGCACTGCACGCCGT
DNA 2: ACGGCGTGCAGTGCTTCGGC
With B1, the activity was ≥ 100 % of reference.
